Key:
[1] = molecular target: CD80-Ig (extracellular domain of CD80 fused with the constant region of mouse IgG1 heavy chain) (mouse); assay: SPR competitive kinetics, peptide 3 × 10^5 nM with 3.2 µM CD28-Ig (competitor) over captured CD80-Ig
[2] = molecular target: CD80-Ig (extracellular domain of CD80 fused with the constant region of mouse IgG1 heavy chain) (mouse); assay: SPR direct kinetics, peptide 7.50E+02 nM over immobilized CD80-Ig
[3] = molecular target: CD80-Ig (extracellular domain of CD80 fused with the constant region of mouse IgG1 heavy chain) (mouse); assay: SPR competitive kinetics, peptide 0.125 × 10^5 nM with 3.2 µM CD28-Ig (competitor) over captured CD80-Ig
[4] = molecular target: CD80-Ig (extracellular domain of CD80 fused with the constant region of mouse IgG1 heavy chain) (mouse); assay: SPR competitive kinetics, peptide 0.5 × 10^5 nM with 3.2 µM CD28-Ig (competitor) over captured CD80-Ig
[5] = molecular target: CD80-Ig (extracellular domain of CD80 fused with the constant region of mouse IgG1 heavy chain) (mouse); assay: SPR competitive kinetics, average over peptide concentrations; competitor CD28-Ig
[6] = molecular target: CD80-Ig (extracellular domain of CD80 fused with the constant region of mouse IgG1 heavy chain) (mouse); assay: SPR (BIACORE), peptide over amine-coupled CD80-Ig, 37 C
[7] = molecular target: CD80-Ig (extracellular domain of CD80 fused with the constant region of mouse IgG1 heavy chain) (mouse); assay: SPR competitive kinetics, peptide 1 × 10^5 nM with 3.2 µM CD28-Ig (competitor) over captured CD80-Ig
[8] = molecular target: CD80-Ig (extracellular domain of CD80 fused with the constant region of mouse IgG1 heavy chain) (mouse); assay: SPR (BIACORE), EL CD28 peptide injected over amine-coupled CD80-Ig (1488 RU); slope of ln dR/dt vs t plotted against the peptide concentration, ka is the slope of this plot
[9] = molecular target: CD80-Ig (extracellular domain of CD80 fused with the constant region of mouse IgG1 heavy chain) (mouse); assay: SPR direct kinetics, peptide 6.00E+03 nM over immobilized CD80-Ig
[10] = molecular target: CD80-Ig (extracellular domain of CD80 fused with the constant region of mouse IgG1 heavy chain) (mouse); assay: SPR competitive kinetics, peptide 0.25 × 10^5 nM with 3.2 µM CD28-Ig (competitor) over captured CD80-Ig
[11] = molecular target: CD80-Ig (extracellular domain of CD80 fused with the constant region of mouse IgG1 heavy chain) (mouse); assay: SPR competitive kinetics, peptide 2 × 10^5 nM with 3.2 µM CD28-Ig (competitor) over captured CD80-Ig
[12] = molecular target: CD80-Ig (extracellular domain of CD80 fused with the constant region of mouse IgG1 heavy chain) (mouse); assay: SPR (BIACORE), direct binding to immobilized CD80-Ig, linear regression plot
[13] = molecular target: CD80-Ig (extracellular domain of CD80 fused with the constant region of mouse IgG1 heavy chain) (mouse); assay: SPR direct kinetics, peptide 1.50E+03 nM over immobilized CD80-Ig
[14] = molecular target: CD80-Ig (extracellular domain of CD80 fused with the constant region of mouse IgG1 heavy chain) (mouse); assay: SPR direct kinetics, peptide 3.75E+02 nM over immobilized CD80-Ig
[15] = molecular target: CD80-Ig (extracellular domain of CD80 fused with the constant region of mouse IgG1 heavy chain) (mouse); assay: SPR direct kinetics, peptide 3.00E+03 nM over immobilized CD80-Ig

Kd [1]: 2920 nM | koff [1]: 6.89 s⁻¹ | kon [1]: 2.36e+06 M⁻¹ s⁻¹ | koff [2]: 0.274 s⁻¹ | kon [2]: 110000 M⁻¹ s⁻¹ | Kd [3]: 1380 nM | koff [3]: 0.101 s⁻¹ | kon [3]: 73400 M⁻¹ s⁻¹ | Kd [4]: 5000 nM | koff [4]: 0.316 s⁻¹ | kon [4]: 63200 M⁻¹ s⁻¹ | Kd [5]: 2790 nM | maximum response units [6]: 668 RU | Kd [7]: 2540 nM | koff [7]: 0.0803 s⁻¹ | kon [7]: 31600 M⁻¹ s⁻¹ | kon [8]: 113000 M⁻¹ s⁻¹ | koff [9]: 0.273 s⁻¹ | kon [9]: 111000 M⁻¹ s⁻¹ | Kd [10]: 3360 nM | koff [10]: 0.0195 s⁻¹ | kon [10]: 3360 M⁻¹ s⁻¹ | Kd [11]: 1560 nM | koff [11]: 0.0862 s⁻¹ | kon [11]: 55100 M⁻¹ s⁻¹ | Kd [12]: 2340 nM | koff [13]: 0.242 s⁻¹ | kon [13]: 115000 M⁻¹ s⁻¹ | koff [14]: 0.399 s⁻¹ | kon [14]: 246000 M⁻¹ s⁻¹ | koff [15]: 0.214 s⁻¹ | kon [15]: 137000 M⁻¹ s⁻¹
Binder: Ac-KIEFMYPPPYLDNERSNGTI-NH2 [EL-CD28 (end-blocked L CD28 peptide mimetic)]
